Experimental findings from PMC4552281 are described below.

This assay addresses FcBP-encapsulin (Fc-binding peptide inserted encapsulin protein cage nanoparticle) (Thermotoga maritima) (UniProt Q9WZP2). Put plainly: SEC; elution of purified FcBP-encapsulin compared with encapsulin. In general terms: Size exclusion chromatography separates by hydrodynamic size, large species first.

For orientation: stoichiometry N means the number of molecules, sites or subunits per partner or assembly. For “FcBP-encapsulin (Fc-binding peptide inserted encapsulin protein cage nanoparticle) (from UniProt Q9WZP2 1-138; Q9WZP2 139-265) (designed binder)”, the stoichiometry N turned out to be 60.
